Measurements published in PMC7690628 (Pharmaceuticals, 2020).

Experiments:
CYP3A4 = CYP3A4 (Homo sapiens, UniProt P08684); assay: biochemical
purified protein = substrate: O=C(CCc1ccc(O)cc1)c1c(O)cc(O)cc1O; assay: purified protein; conditions: heme

CYP3A4, sequence (P08684 2-503): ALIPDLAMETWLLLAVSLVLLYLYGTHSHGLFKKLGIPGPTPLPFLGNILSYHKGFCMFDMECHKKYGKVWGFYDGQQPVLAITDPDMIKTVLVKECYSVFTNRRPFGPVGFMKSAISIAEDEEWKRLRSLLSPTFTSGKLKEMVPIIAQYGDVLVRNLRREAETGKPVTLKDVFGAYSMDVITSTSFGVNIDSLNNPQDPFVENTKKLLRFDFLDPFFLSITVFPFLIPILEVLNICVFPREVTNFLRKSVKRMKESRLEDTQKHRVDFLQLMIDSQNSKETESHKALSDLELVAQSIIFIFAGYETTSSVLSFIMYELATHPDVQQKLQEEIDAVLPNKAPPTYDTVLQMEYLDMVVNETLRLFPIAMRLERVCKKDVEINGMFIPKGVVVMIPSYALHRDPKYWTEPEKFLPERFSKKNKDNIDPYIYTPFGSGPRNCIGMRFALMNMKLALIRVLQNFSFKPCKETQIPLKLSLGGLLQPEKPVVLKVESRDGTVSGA
CYP3A4, sequence (P00388 2-678 partner): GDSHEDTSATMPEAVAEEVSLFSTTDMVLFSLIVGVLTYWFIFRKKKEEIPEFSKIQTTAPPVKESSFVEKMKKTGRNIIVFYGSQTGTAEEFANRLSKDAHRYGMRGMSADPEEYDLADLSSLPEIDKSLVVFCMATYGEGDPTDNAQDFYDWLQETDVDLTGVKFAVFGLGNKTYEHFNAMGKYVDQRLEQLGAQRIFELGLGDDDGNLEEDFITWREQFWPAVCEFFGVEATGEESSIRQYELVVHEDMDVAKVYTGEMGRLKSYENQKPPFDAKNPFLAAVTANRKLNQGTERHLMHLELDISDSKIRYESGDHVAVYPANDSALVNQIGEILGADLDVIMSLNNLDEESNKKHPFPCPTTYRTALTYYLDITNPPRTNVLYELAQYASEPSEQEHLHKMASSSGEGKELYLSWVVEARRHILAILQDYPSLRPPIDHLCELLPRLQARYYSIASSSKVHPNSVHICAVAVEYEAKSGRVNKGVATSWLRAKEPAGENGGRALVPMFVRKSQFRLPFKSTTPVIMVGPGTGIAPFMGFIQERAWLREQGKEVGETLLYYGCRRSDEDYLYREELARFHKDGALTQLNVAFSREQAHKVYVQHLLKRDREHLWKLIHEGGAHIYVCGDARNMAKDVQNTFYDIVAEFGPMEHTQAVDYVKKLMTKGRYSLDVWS

Row | Molecule | IC50 (CYP3A4) | Km (purified protein) | kcat (purified protein) | kcat/Km (purified protein)
1 | O=C(CCc1ccc(O)cc1)c1c(O)cc(O)cc1O [phloretin, 3-(4-hydroxyphenyl)-1-(2,4,6-trihydroxyphenyl)propan-1-one] | 13 µM |  |  | 
2 | CYP2C19 (Homo sapiens) (protein) MDPFVVLVLCLSCLLLLSIWRQSSGRGKLPPGPTPLPVIGNILQIDIKDVSKSLTNLSKIYGPVFTLYFGLERMVVLHGYEVVKEALIDLGEEFSGRGHFPLAERANRGFGIVFSNGKRWKEIRRFSLMTLRNFGMGKRSIEDRVQEEARCLVEELRKTKASPCDPTFILGCAPCNVICSIIFQKRFDYKDQQFLNLMEKLNENIRIVSTPWIQICNNFPTIIDYFPGTHNKLLKNLAFMESDILEKVKEHQESMDINNPRDFIDCFLIKMEKEKQNQQSEFTIENLVITAADLLGAGTETTSTTLRYALLLLLKHPEVTAKVQEEIERVIGRNRSPCMQDRGHMPYTDAVVHEVQRYIDLIPTSLPHAVTCDVKFRNYLIPKGTTILTSLTSVLHDNKEFPNPEMFDPRHFLDEGGNFKKSNYFMPFSAGKRICVGEGLARMELFLFLTFILQNFNLKSLIDPKDLDTTPVVNGFASVPPFYQLCFIPV |  | 208 ± 50 µM | 0.0967 s⁻¹ | 467 M⁻¹ s⁻¹
